This is an account of results in the supplement of paper PMC9112550, “Optimization of the antimicrobial peptide Bac7 by deep mutational scanning” (BMC Biology, 2022).

The series concerns Escherichia coli TOP10. Put plainly: shrunken log2 fold change of peptide-encoding DNA abundance (4.5 h post-induction vs induction); higher = less antimicrobial activity (less host growth inhibition). The settings on record: time post-induction: 4.5 h; library: site-saturation at positions 5, 18, 19, 20.
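Also: peptides expressed intracellularly from a pBAD plasmid library in pooled LB shake-flask culture, induced with 0.3% L-arabinose, DNA abundance read by NGS, three biological replicates, DESeq2 with apeglm shrinkage.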

RRIRMRPPRLPRPRPRPILTPRP: the “shrunken log2 fold change” value came to 0.168.

For RRIRTRPPRLPRPRPRPIKGPRP, the “shrunken log2 fold change” value was -0.331.

Consider RRIRMRPPRLPRPRPRPQYVPRP, for which the “shrunken log2 fold change” value was -0.0961.

On to RRIRERPPRLPRPRPRPWKQPRP, for which the “shrunken log2 fold change” value is -0.0582.

RRIRQRPPRLPRPRPRPTKEPRP: the “shrunken log2 fold change” value stood at 0.0425.

As for RRIRCRPPRLPRPRPRPFGSPRP, the “shrunken log2 fold change” value was -0.078.

As to RRIRCRPPRLPRPRPRPLHVPRP, the “shrunken log2 fold change” value is -0.178.

RRIRLRPPRLPRPRPRPDGGPRP: the “shrunken log2 fold change” value is -0.000524.

As for RRIRNRPPRLPRPRPRPAAPPRP, the “shrunken log2 fold change” value was determined as 0.331.

For RRIRHRPPRLPRPRPRPFPDPRP, the “shrunken log2 fold change” value is 0.0592.

Take RRIRWRPPRLPRPRPRPNHQPRP: the “shrunken log2 fold change” value was -0.342.

Take RRIRFRPPRLPRPRPRPHTPPRP: the “shrunken log2 fold change” value turned out to be 1.24.

As for RRIRQRPPRLPRPRPRPVAPPRP, the “shrunken log2 fold change” value was 0.357.

Take RRIRTRPPRLPRPRPRPSLIPRP: the “shrunken log2 fold change” value was -0.424.

In the case of RRIRTRPPRLPRPRPRPPVVPRP, the “shrunken log2 fold change” value was -0.0715.

As for RRIRARPPRLPRPRPRPNDKPRP, the “shrunken log2 fold change” value is -0.129.

As for RRIRRRPPRLPRPRPRPLVFPRP, the “shrunken log2 fold change” value is -0.0441.

Regarding RRIRWRPPRLPRPRPRPRRSPRP, the “shrunken log2 fold change” value came to 0.492.

Turning to RRIRYRPPRLPRPRPRPYTPPRP, the “shrunken log2 fold change” value was -1.28.

As for RRIRYRPPRLPRPRPRPDGMPRP, the “shrunken log2 fold change” value was 0.0112.

Consider RRIRKRPPRLPRPRPRPDIYPRP, for which the “shrunken log2 fold change” value stood at 0.152.

As to RRIRLRPPRLPRPRPRPHGAPRP, the “shrunken log2 fold change” value stood at 0.0606.

Turning to RRIRKRPPRLPRPRPRPWCMPRP, the “shrunken log2 fold change” value was found to be 0.183.

Regarding RRIRMRPPRLPRPRPRPMQYPRP, the “shrunken log2 fold change” value was -0.315.

For RRIRPRPPRLPRPRPRPIRYPRP, the “shrunken log2 fold change” value was 0.00275.

As to RRIRARPPRLPRPRPRPYALPRP, the “shrunken log2 fold change” value is 0.0681.

In the case of RRIRFRPPRLPRPRPRPKTLPRP, the “shrunken log2 fold change” value is -0.145.

With RRIRIRPPRLPRPRPRPYDYPRP, the “shrunken log2 fold change” value is -0.0343.

As to RRIRGRPPRLPRPRPRPSQFPRP, the “shrunken log2 fold change” value is 0.192.

For the sequence RRIRQRPPRLPRPRPRPIYKPRP, the “shrunken log2 fold change” value was -0.12.

For RRIRNRPPRLPRPRPRPKDRPRP, the “shrunken log2 fold change” value was -0.0176.

In the case of RRIRNRPPRLPRPRPRPHRPPRP, the “shrunken log2 fold change” value came to 0.128.

For RRIRTRPPRLPRPRPRPKWTPRP, the “shrunken log2 fold change” value stood at 0.0189.

Take RRIRSRPPRLPRPRPRPFSTPRP: the “shrunken log2 fold change” value was -0.372.

Turning to RRIRMRPPRLPRPRPRPPGIPRP, the “shrunken log2 fold change” value is 1.2.

On to RRIRMRPPRLPRPRPRPDAWPRP, for which the “shrunken log2 fold change” value was 2.59.

For RRIRDRPPRLPRPRPRPHHHPRP, the “shrunken log2 fold change” value is -0.505.

On to RRIRARPPRLPRPRPRPDMVPRP, for which the “shrunken log2 fold change” value was determined as 0.308.

Turning to RRIRQRPPRLPRPRPRPGWCPRP, the “shrunken log2 fold change” value is 0.0842.

Consider RRIRQRPPRLPRPRPRPWWGPRP, for which the “shrunken log2 fold change” value amounted to 0.0786.

Regarding RRIRTRPPRLPRPRPRPTTKPRP, the “shrunken log2 fold change” value was -0.0673.

In the case of RRIRIRPPRLPRPRPRPKNNPRP, the “shrunken log2 fold change” value was -0.878.

Turning to RRIRIRPPRLPRPRPRPMWPPRP, the “shrunken log2 fold change” value was 0.128.

RRIRYRPPRLPRPRPRPDDNPRP: the “shrunken log2 fold change” value stood at 0.0238.

With RRIRMRPPRLPRPRPRPHMGPRP, the “shrunken log2 fold change” value was -0.0941.

Turning to RRIRGRPPRLPRPRPRPHDNPRP, the “shrunken log2 fold change” value came to 0.174.

Take RRIRRRPPRLPRPRPRPLCIPRP: the “shrunken log2 fold change” value is -0.119.

Regarding RRIRQRPPRLPRPRPRPSNAPRP, the “shrunken log2 fold change” value is -0.198.

In the case of RRIRHRPPRLPRPRPRPETKPRP, the “shrunken log2 fold change” value is -0.0652.

For RRIRIRPPRLPRPRPRPGGTPRP, the “shrunken log2 fold change” value is -0.439.

Regarding RRIRQRPPRLPRPRPRPFMHPRP, the “shrunken log2 fold change” value was -0.0117.

As to RRIRFRPPRLPRPRPRPFHVPRP, the “shrunken log2 fold change” value was -0.546.

Consider RRIRWRPPRLPRPRPRPPKEPRP, for which the “shrunken log2 fold change” value was 0.433.

For the sequence RRIRFRPPRLPRPRPRPTFYPRP, the “shrunken log2 fold change” value is -0.366.

For the sequence RRIRSRPPRLPRPRPRPEMQPRP, the “shrunken log2 fold change” value worked out at 0.0419.

On to RRIRSRPPRLPRPRPRPQINPRP, for which the “shrunken log2 fold change” value was -0.46.

In the case of RRIRLRPPRLPRPRPRPGTFPRP, the “shrunken log2 fold change” value amounted to 0.0118.

Take RRIRLRPPRLPRPRPRPVQSPRP: the “shrunken log2 fold change” value is -0.031.

Take RRIRFRPPRLPRPRPRPFDFPRP: the “shrunken log2 fold change” value is -0.692.

Consider RRIRKRPPRLPRPRPRPLSVPRP, for which the “shrunken log2 fold change” value is -0.00128.

Turning to RRIRCRPPRLPRPRPRPETQPRP, the “shrunken log2 fold change” value stood at 0.0409.

Take RRIRWRPPRLPRPRPRPRAFPRP: the “shrunken log2 fold change” value was 0.57.

RRIRVRPPRLPRPRPRPPKPPRP: the “shrunken log2 fold change” value stood at 0.107.

In the case of RRIRFRPPRLPRPRPRPHSAPRP, the “shrunken log2 fold change” value was -0.179.

Take RRIRKRPPRLPRPRPRPMPGPRP: the “shrunken log2 fold change” value worked out at 0.0564.

As for RRIRRRPPRLPRPRPRPPGFPRP, the “shrunken log2 fold change” value amounted to 0.468.

As for RRIRHRPPRLPRPRPRPWDQPRP, the “shrunken log2 fold change” value turned out to be 0.0769.

For the sequence RRIRVRPPRLPRPRPRPTRKPRP, the “shrunken log2 fold change” value was 0.575.

For the sequence RRIRLRPPRLPRPRPRPFLFPRP, the “shrunken log2 fold change” value was -0.34.

Consider RRIRCRPPRLPRPRPRPGATPRP, for which the “shrunken log2 fold change” value came to 0.512.

Take RRIRGRPPRLPRPRPRPQHDPRP: the “shrunken log2 fold change” value is -0.000778.

For the sequence RRIRMRPPRLPRPRPRPEDNPRP, the “shrunken log2 fold change” value stood at 0.0325.

Consider RRIRWRPPRLPRPRPRPLVHPRP, for which the “shrunken log2 fold change” value is -0.11.

Turning to RRIRRRPPRLPRPRPRPRRCPRP, the “shrunken log2 fold change” value was determined as 0.615.

RRIRSRPPRLPRPRPRPGAGPRP: the “shrunken log2 fold change” value is 0.445.

Turning to RRIRARPPRLPRPRPRPVSRPRP, the “shrunken log2 fold change” value was 0.661.

As for RRIRARPPRLPRPRPRPIFDPRP, the “shrunken log2 fold change” value was 0.0844.

As for RRIRHRPPRLPRPRPRPLFTPRP, the “shrunken log2 fold change” value is -0.699.

In the case of RRIRGRPPRLPRPRPRPGALPRP, the “shrunken log2 fold change” value turned out to be 0.723.

With RRIRARPPRLPRPRPRPQTVPRP, the “shrunken log2 fold change” value is 0.129.

Take RRIRWRPPRLPRPRPRPQPEPRP: the “shrunken log2 fold change” value came out at 0.139.

For RRIRCRPPRLPRPRPRPQELPRP, the “shrunken log2 fold change” value was -0.212.

In the case of RRIRGRPPRLPRPRPRPAEPPRP, the “shrunken log2 fold change” value came to 0.176.

Consider RRIRNRPPRLPRPRPRPETSPRP, for which the “shrunken log2 fold change” value was 0.24.

On to RRIRQRPPRLPRPRPRPRLNPRP, for which the “shrunken log2 fold change” value was -0.111.

With RRIRSRPPRLPRPRPRPNKDPRP, the “shrunken log2 fold change” value was -0.651.

RRIRSRPPRLPRPRPRPWLFPRP: the “shrunken log2 fold change” value was -0.183.

On to RRIRARPPRLPRPRPRPMKGPRP, for which the “shrunken log2 fold change” value was -0.132.

With RRIRDRPPRLPRPRPRPTRIPRP, the “shrunken log2 fold change” value came to 0.0348.

In the case of RRIRSRPPRLPRPRPRPIVTPRP, the “shrunken log2 fold change” value is -0.192.

Consider RRIRARPPRLPRPRPRPTKRPRP, for which the “shrunken log2 fold change” value is 0.247.
